Results reported in PMC12416549 (2024).
Residue numbers refer to the chain shown, from its start. Numbers in names are those of the source.

T1: TNFR1 (Homo sapiens, UniProt P19438)
T1 chain: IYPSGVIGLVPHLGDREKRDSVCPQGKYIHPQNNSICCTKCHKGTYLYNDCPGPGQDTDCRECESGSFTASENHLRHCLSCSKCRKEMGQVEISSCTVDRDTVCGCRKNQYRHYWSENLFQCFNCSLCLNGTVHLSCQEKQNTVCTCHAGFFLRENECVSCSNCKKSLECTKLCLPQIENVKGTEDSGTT

B1: Y13P (designed binder)
chain: SMEEEVEKAAKEPEKKKKEAIEKHLEKLKAKDKEAAERFLKELEEAAKEYAKDEAKTMSEEEAKRRAKKYKEKVLLSELSEEEQKEIKEAEEKLVRTILKYVEEAAK
B2: M2S (designed binder)
chain: B1 chain with M2S, P13Y
B3: A63Y (designed binder)
chain: B1 chain with P13Y, A63Y
B4: L25T (designed binder)
chain: B1 chain with P13Y, L25T
B5: K17T (designed binder)
chain: B1 chain with P13Y, K17T
B6: E103W (designed binder)
chain: B1 chain with P13Y, E103W
B7: Q84S (designed binder)
chain: B1 chain with P13Y, Q84S
B8: Y13F (designed binder)
chain: B1 chain with P13F
B9: K27V (designed binder)
chain: B1 chain with P13Y, K27V
B10: A9T (designed binder)
chain: B1 chain with A9T, P13Y
B11: K18H (designed binder)
chain: B1 chain with P13Y, K18H
B12: A10Q (designed binder)
chain: B1 chain with A10Q, P13Y
B13: E81W (designed binder)
chain: B1 chain with P13Y, E81W
B14: L28H (designed binder)
chain: B1 chain with P13Y, L28H
B15: L75Y (designed binder)
chain: B1 chain with P13Y, L75Y
B16: H24Q (designed binder)
chain: B1 chain with P13Y, H24Q
B17: E104V (designed binder)
chain: B1 chain with P13Y, E104V
B18: K33H (designed binder)
chain: B1 chain with P13Y, K33H
B19: A30P (designed binder)
chain: B1 chain with P13Y, A30P
B20: V74T (designed binder)
chain: B1 chain with P13Y, V74T
B21: L40T (designed binder)
chain: B1 chain with P13Y, L40T
B22: L79C (designed binder)
chain: B1 chain with P13Y, L79C
B23: V6F (designed binder)
chain: B1 chain with V6F, P13Y
B24: E104P (designed binder)
chain: B1 chain with P13Y, E104P
B25: L94H (designed binder)
chain: B1 chain with P13Y, L94H
B26: S77N (designed binder)
chain: B1 chain with P13Y, S77N
B27: E19Y (designed binder)
chain: B1 chain with P13Y, E19Y
B28: E61S (designed binder)
chain: B1 chain with P13Y, E61S
B29: D53Y (designed binder)
chain: B1 chain with P13Y, D53Y
B30: Y50A (designed binder)
chain: B1 chain with P13Y, Y50A
B31: K64Y (designed binder)
chain: B1 chain with P13Y, K64Y
B32: K52G (designed binder)
chain: B1 chain with P13Y, K52G
B33: K8F (designed binder)
chain: B1 chain with K8F, P13Y
B34: E82F (designed binder)
chain: B1 chain with P13Y, E82F
B35: L94F (designed binder)
chain: B1 chain with P13Y, L94F
B36: E49T (designed binder)
chain: B1 chain with P13Y, E49T
B37: A105N (designed binder)
chain: B1 chain with P13Y, A105N
B38: E3M (designed binder)
chain: B1 chain with E3M, P13Y
B39: V95L (designed binder)
chain: B1 chain with P13Y, V95L
B40: E42N (designed binder)
chain: B1 chain with P13Y, E42N
B41: E82I (designed binder)
chain: B1 chain with P13Y, E82I
B42: M2R (designed binder)
chain: B1 chain with M2R, P13Y
B43: A105D (designed binder)
chain: B1 chain with P13Y, A105D
B44: L28G (designed binder)
chain: B1 chain with P13Y, L28G
B45: R66D (designed binder)
chain: B1 chain with P13Y, R66D
B46: K11Y (designed binder)
chain: B1 chain with K11Y, P13Y
B47: K93S (designed binder)
chain: B1 chain with P13Y, K93S
B48: I21A (designed binder)
chain: B1 chain with P13Y, I21A
B49: K18Q (designed binder)
chain: B1 chain with P13Y, K18Q
B50: D32C (designed binder)
chain: B1 chain with P13Y, D32C
B51: E92A (designed binder)
chain: B1 chain with P13Y, E92A
B52: E91R (designed binder)
chain: B1 chain with P13Y, E91R
B53: K27S (designed binder)
chain: B1 chain with P13Y, K27S
B54: S59W (designed binder)
chain: B1 chain with P13Y, S59W
B55: M2K (designed binder)
chain: B1 chain with M2K, P13Y
B56: E45M (designed binder)
chain: B1 chain with P13Y, E45M
B57: K100I (designed binder)
chain: B1 chain with P13Y, K100I
B58: A35C (designed binder)
chain: B1 chain with P13Y, A35C
B59: E5I (designed binder)
chain: B1 chain with E5I, P13Y

Target: T1, TNFR1
Assay: yeast display SC50

apparent Kd (screen) [nM] | Binder
13.8 | B1
0.446 | B2
12.5 | B3
1.86 | B4
1.05 | B5
0.869 | B6
11.4 | B7
0.446 | B8
0.956 | B9
0.446 | B10
1.27 | B11
1.4 | B12
0.304 | B13
0.79 | B14
1.86 | B15
0.79 | B16
0.446 | B17
0.446 | B18
11.4 | B19
16.7 | B20

apparent Kd (screen) [nM] | Binder
0.718 | B21
1.86 | B22
2.25 | B23
0.446 | B24
0.446 | B25
3 | B26
1.54 | B27
1.4 | B28
2.73 | B29
29.5 | B30
0.446 | B31
0.869 | B32
0.539 | B33
0.539 | B34
0.446 | B35
2.73 | B36
1.86 | B37
10.4 | B38
7.07 | B39
7.07 | B40

apparent Kd (screen) [nM] | Binder
0.49 | B41
0.539 | B42
0.446 | B43
1.4 | B44
0.593 | B45
0.49 | B46
0.653 | B47
0.653 | B48
1.4 | B49
3 | B50
12.5 | B51
6.43 | B52
0.869 | B53
13.8 | B54
0.49 | B55
1.69 | B56
1.4 | B57
1.69 | B58
0.653 | B59
